From paper PMC6482854

What was measured:
[1] = target: P22-StAv particles (in vitro assembled) (bacteriophage P22 | not stated) (UniProt P26747); assay: SEC-MALS
[2] = target: P22 coat protein (bacteriophage P22) (UniProt P26747); assay: SEC-MALS

UniProt P26747, sequence (P26747 whole entry): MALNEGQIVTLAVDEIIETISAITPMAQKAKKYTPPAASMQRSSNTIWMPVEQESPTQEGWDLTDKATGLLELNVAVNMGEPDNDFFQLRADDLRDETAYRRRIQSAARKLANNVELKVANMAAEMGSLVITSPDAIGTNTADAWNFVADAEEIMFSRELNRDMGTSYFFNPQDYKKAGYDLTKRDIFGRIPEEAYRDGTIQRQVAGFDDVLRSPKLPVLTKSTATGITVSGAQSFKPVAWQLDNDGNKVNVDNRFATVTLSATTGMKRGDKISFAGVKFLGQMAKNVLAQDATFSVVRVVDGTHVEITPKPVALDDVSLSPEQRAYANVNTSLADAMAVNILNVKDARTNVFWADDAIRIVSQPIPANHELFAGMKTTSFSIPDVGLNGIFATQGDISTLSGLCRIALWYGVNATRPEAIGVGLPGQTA

Row | Substance | stoichiometry N (copies per capsid) [1] | copies of StAv-SP per capsid (copies per capsid) [2]
1 | biotinylated Cys-6xhis-SP(142–303)-GGGGG-ENLYFQS-GGGGG-GFP (from UniProt P26748 142-303) | 36 | 
2 | 6xhis-StAv(15–159)-GAAG-ENLYFQS-GAAG-SP(142–303) (from UniProt P26748 142-303) |  | 328
